In paper PMC9482650, “Quantitative fragmentomics allow affinity mapping of interactomes” (Nature Communications, 2022):

B1: SLC4A7, Q9Y6M7 (peptide)
chain: KKYVDAETSL
B2: HPV30-E6, P36809 (peptide)
chain: RHTTSTETAV
B3: ATP2B4, P23634 (peptide)
chain: SSLQSLETSV

Experiments:
Experiment in all cases: holdup assay
Design in all cases: key: below the threshold = too weak to quantify, mostly under pKd 3.1 to 4
Settings in all cases: plain residues with an end cap or a label only (N-terminal biotin on a linker: ttds)
CARD11, Q9BXL7 = molecular target: T1, CARD11, Q9BXL7
T1 sequence (Q9BXL7 662-765, limits assumed, looked up): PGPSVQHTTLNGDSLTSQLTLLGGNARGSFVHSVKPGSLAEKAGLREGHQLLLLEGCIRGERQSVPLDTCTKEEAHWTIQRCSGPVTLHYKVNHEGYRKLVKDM

APBA3_1, O96018 = molecular target: T2, APBA3_1, O96018
T2 sequence (O96018 389-490, limits assumed, looked up): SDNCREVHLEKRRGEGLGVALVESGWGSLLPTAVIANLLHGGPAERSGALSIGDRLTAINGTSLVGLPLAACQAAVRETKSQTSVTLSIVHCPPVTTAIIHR

MPDZ_5, O75970 = molecular target: T3, MPDZ_5, O75970
T3 sequence (O75970 695-796, limits assumed, looked up): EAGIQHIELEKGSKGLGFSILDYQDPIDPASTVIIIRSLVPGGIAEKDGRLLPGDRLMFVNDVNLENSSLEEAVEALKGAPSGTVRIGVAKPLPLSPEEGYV

DLG4_1, P78352 = molecular target: DLG4_1, P78352
GRIP1_5, Q9Y3R0 = molecular target: T4, GRIP1_5, Q9Y3R0
T4 sequence (Q9Y3R0 568-668, limits assumed, looked up): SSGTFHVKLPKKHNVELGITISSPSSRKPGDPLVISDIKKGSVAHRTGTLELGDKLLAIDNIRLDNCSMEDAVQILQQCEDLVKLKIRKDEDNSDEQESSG

PARD3_3, Q8TEW0 = molecular target: PARD3_3, Q8TEW0
NOS1, P29475 = molecular target: NOS1, P29475
LDB3, O75112 = molecular target: LDB3, O75112
FRMPD1, Q5SYB0 = molecular target: T5, FRMPD1, Q5SYB0
T5 sequence (Q5SYB0 52-145, limits assumed, looked up): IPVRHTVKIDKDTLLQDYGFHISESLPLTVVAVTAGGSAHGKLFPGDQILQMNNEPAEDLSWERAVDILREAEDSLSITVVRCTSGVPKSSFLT

NHERF3_1, Q5T2W1 = molecular target: T6, NHERF3_1, Q5T2W1
T6 sequence (Q5T2W1 4-100, limits assumed, looked up): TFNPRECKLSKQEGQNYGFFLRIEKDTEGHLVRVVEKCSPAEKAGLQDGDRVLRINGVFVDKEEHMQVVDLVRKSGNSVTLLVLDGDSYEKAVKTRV

APBA2_1, Q99767 = molecular target: T7, APBA2_1, Q99767
T7 sequence (Q99767 563-664, limits assumed, looked up): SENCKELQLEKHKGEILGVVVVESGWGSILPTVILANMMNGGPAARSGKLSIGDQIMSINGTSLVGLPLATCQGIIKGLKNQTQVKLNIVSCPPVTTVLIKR

PARD3B_1, Q8TEW8 = molecular target: T8, PARD3B_1, Q8TEW8
T8 sequence (Q8TEW8 196-299, limits assumed, looked up): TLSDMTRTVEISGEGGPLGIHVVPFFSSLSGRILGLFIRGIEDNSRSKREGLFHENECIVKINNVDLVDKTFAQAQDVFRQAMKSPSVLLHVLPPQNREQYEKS

MAGI2_3, Q86UL8 = molecular target: MAGI2_3, Q86UL8
GRIP1_7, Q9Y3R0 = molecular target: T9, GRIP1_7, Q9Y3R0
T9 sequence (Q9Y3R0 999-1096, limits assumed, looked up): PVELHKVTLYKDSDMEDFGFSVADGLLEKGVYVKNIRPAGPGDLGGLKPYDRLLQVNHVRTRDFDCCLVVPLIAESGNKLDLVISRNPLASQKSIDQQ

LIN7A, O14910 = molecular target: T10, LIN7A, O14910
T10 sequence (O14910 103-200, limits assumed, looked up): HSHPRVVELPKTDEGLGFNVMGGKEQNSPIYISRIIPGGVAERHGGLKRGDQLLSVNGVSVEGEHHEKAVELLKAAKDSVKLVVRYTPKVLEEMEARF

MPDZ_12, O75970 = molecular target: T11, MPDZ_12, O75970
T11 sequence (O75970 1857-1958, limits assumed, looked up): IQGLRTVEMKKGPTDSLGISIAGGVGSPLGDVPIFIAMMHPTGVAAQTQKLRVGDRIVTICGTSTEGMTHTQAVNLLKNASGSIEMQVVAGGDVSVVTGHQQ

PDLIM1, O00151 = molecular target: PDLIM1, O00151
Inadl_3, Q8NI35 = molecular target: Inadl_3, Q8NI35
MAGI2_6, Q86UL8 = molecular target: MAGI2_6, Q86UL8
FRMPD4, Q14CM0 = molecular target: FRMPD4, Q14CM0
IL16_4, Q14005 = molecular target: IL16_4, Q14005
GRID2IP_1, A4D2P6 = molecular target: GRID2IP_1, A4D2P6
PDZRN3_1, Q9UPQ7 = molecular target: T12, PDZRN3_1, Q9UPQ7
T12 sequence (Q9UPQ7 244-349, limits assumed, looked up): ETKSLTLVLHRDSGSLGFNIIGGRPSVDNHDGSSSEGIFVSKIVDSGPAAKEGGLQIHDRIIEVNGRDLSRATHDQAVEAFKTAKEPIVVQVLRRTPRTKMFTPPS

DLG3_1, Q92796 = molecular target: T13, DLG3_1, Q92796
T13 sequence (Q92796 125-227, limits assumed, looked up): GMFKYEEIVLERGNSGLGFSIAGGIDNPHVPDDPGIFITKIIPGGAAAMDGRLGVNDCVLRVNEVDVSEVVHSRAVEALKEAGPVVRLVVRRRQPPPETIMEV

FRMPD4, Q14CM0, sequence (Q14CM0 67-160): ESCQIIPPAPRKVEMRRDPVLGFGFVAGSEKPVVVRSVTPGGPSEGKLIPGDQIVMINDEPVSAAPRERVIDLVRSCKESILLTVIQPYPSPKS
LDB3, O75112, sequence (O75112 1-94): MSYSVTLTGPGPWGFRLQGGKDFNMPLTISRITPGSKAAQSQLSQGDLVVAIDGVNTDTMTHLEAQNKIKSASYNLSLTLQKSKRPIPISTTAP
MAGI2_6, Q86UL8, sequence (Q86UL8 1141-1229): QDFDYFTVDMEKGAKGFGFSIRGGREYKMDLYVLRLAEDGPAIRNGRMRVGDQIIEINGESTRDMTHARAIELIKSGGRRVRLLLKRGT
PARD3_3, Q8TEW0, sequence (Q8TEW0 582-685): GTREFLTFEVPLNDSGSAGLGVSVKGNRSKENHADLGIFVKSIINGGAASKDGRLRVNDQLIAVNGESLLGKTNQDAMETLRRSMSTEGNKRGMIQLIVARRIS
NOS1, P29475, sequence (P29475 9-101): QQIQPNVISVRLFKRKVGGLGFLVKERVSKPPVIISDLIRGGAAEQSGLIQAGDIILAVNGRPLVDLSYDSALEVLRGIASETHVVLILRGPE
MAGI2_3, Q86UL8, sequence (Q86UL8 600-682): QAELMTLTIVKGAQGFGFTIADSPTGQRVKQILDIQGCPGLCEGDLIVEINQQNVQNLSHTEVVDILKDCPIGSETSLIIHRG
GRID2IP_1, A4D2P6, sequence (A4D2P6 1-87): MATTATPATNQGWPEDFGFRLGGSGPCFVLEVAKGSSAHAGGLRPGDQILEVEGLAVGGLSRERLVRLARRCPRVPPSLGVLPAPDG
IL16_4, Q14005, sequence (Q14005 1229-1329): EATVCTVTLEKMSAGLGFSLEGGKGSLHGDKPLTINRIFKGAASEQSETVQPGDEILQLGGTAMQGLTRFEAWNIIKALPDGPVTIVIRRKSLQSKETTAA
Inadl_3, Q8NI35, sequence (Q8NI35 359-469): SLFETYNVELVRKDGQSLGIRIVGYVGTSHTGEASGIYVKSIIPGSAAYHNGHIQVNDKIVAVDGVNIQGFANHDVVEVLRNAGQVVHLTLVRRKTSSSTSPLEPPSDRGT
DLG4_1, P78352, sequence (P78352 62-152): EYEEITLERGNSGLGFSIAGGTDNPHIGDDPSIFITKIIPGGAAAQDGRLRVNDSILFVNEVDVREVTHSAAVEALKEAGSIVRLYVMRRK
PDLIM1, O00151, sequence (O00151 1-87): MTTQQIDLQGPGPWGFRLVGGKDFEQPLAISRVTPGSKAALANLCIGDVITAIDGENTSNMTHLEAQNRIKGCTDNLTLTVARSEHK

Binder | pKd (CARD11, Q9BXL7) | pKd (APBA3_1, O96018) | pKd (MPDZ_5, O75970) | pKd (DLG4_1, P78352) | pKd (GRIP1_5, Q9Y3R0) | pKd (PARD3_3, Q8TEW0) | pKd (NOS1, P29475) | pKd (LDB3, O75112) | pKd (FRMPD1, Q5SYB0) | pKd (NHERF3_1, Q5T2W1) | pKd (APBA2_1, Q99767) | pKd (PARD3B_1, Q8TEW8) | pKd (MAGI2_3, Q86UL8) | pKd (GRIP1_7, Q9Y3R0) | pKd (LIN7A, O14910) | pKd (MPDZ_12, O75970) | pKd (PDLIM1, O00151) | pKd (Inadl_3, Q8NI35) | pKd (MAGI2_6, Q86UL8) | pKd (FRMPD4, Q14CM0) | also measured
B1 | below the threshold | below the threshold | below the threshold | 3.73 | 3.53 | 3.62 | 3.58 | below the threshold | below the threshold | 5.38 | below the threshold | 3.65 | below the threshold | below the threshold | below the threshold | below the threshold | below the threshold | below the threshold | 3.68 | 4.4 | pKd (IL16_4, Q14005): 3.53; pKd (GRID2IP_1, A4D2P6): below the threshold; pKd (PDZRN3_1, Q9UPQ7): 4.57; pKd (DLG3_1, Q92796): 3.49
B2 | below the threshold | below the threshold | below the threshold | 4.92 | below the threshold | below the threshold | 4.63 | below the threshold | below the threshold | 4.87 | below the threshold | below the threshold | 4.57 | below the threshold | 3.8 | below the threshold | below the threshold | 3.77 | 4.19 | below the threshold | pKd (IL16_4, Q14005): below the threshold; pKd (GRID2IP_1, A4D2P6): below the threshold; pKd (PDZRN3_1, Q9UPQ7): 4.68; pKd (DLG3_1, Q92796): 4.45
B3 | below the threshold | below the threshold | 3.58 | 4.78 | below the threshold | 3.87 | 4.04 | below the threshold | below the threshold | 4.41 | below the threshold | below the threshold | 4.2 | below the threshold | 4.04 | 3.53 | 3.66 | 3.56 | 4.55 | below the threshold | pKd (IL16_4, Q14005): below the threshold; pKd (GRID2IP_1, A4D2P6): below the threshold; pKd (PDZRN3_1, Q9UPQ7): 5.15; pKd (DLG3_1, Q92796): 4.35
